According to patent publication US20250154240A1 (CHIOME BIOSCIENCE, published 2025):
Residue numbers refer to the chain shown, from its start.

Tests used:
human CXCL1 protein [1] = molecular target: T1, human CXCL1 protein (human, UniProt P09341 35-107); experiment: blocking ELISA: HuCXCL1 immobilised, antibody 0 to 10 µg/mL, then biotin-labeled heparin 10 µg/mL (blocked ligand: heparin); panel HuCXCL1
T1 construct: also called HuCXCL1
T1 sequence: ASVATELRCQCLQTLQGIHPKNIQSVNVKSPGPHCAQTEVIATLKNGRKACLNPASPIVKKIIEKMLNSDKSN
Method: (§1) Thus, the effect of Hu5A-5E11 on the binding of CXCLs to GAG was evaluated by ELISA assay using plates on which the antigen (HuCXCL1 protein) used for immunization or HuCXCL2, 3 and 5 and MsCXCL1 and 2 proteins had been directly immobilized. CXCLs other than HuCXCL1 were purchased from PROTEINTECH and used. Biotin-labeled heparan sulfate and heparin were purchased from PG Research and used.
(§2) To 96-well plates, phosphate-buffered saline (PBS) containing 3 μg/mL of HuCXCL1, 2, 3 or 5 or MsCXCL1 or 10 μg/mL of MsCXCL2 was added in a volume of 50 μL per well, and the plates were allowed to stand overnight at 4° C. After removal of the antigen solutions, PBS containing 0.05% Tween-20 (hereinafter referred to as the blocking solution) was added to each well for blocking reaction, and the plates were allowed to stand at room temperature for 30 minutes. […] TMB (Dako) was added as a chromogenic substrate solution to cause color development, and 1 N sulfuric acid was added to stop the reaction, followed by measurement of absorbance at 450 nm. The binding rate of CXCLs to GAG was calculated as a ratio relative to the absorbance measured in the absence of the antibody, which was set to 100%.

human CXCL5 = molecular target: T2, human CXCL5 (human, UniProt P42830 37-114, limits assumed); experiment: blocking ELISA: HuCXCL5 immobilised, antibody 0 to 10 µg/mL, then biotin-labeled heparin 10 µg/mL (blocked ligand: heparin); panel HuCXCL5
T2 construct: also called HuCXCL5
T2 sequence (looked up): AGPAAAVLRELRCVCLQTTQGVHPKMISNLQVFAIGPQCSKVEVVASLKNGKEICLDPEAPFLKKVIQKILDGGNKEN
Method: as §1, §2

mouse CXCL1 = molecular target: T3, mouse CXCL1 (mouse, UniProt P12850 25-96, limits assumed); experiment: blocking ELISA: MsCXCL1 immobilised, antibody 0 to 10 µg/mL, then biotin-labeled heparin 10 µg/mL (blocked ligand: heparin); panel MsCXCL1
T3 construct: also called MsCXCL1
T3 sequence (looked up): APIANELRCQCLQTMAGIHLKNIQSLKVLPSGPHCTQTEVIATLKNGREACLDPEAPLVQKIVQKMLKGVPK
Method: as §1, §2

human CXCL3 = molecular target: T4, human CXCL3 (human, UniProt P19876 35-107, limits assumed); experiment: blocking ELISA: HuCXCL3 immobilised, antibody 0 to 10 µg/mL, then biotin-labeled heparin 10 µg/mL (blocked ligand: heparin); panel HuCXCL3
T4 construct: also called HuCXCL3
T4 sequence (looked up): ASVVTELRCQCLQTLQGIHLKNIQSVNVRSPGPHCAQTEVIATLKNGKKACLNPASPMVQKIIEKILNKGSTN
Method: as §1, §2

human CXCL2 = molecular target: T5, human CXCL2 (human, UniProt P19875 35-107, limits assumed); experiment: blocking ELISA: HuCXCL2 immobilised, antibody 0 to 10 µg/mL, then biotin-labeled heparan sulfate 10 µg/mL (blocked ligand: heparan sulfate); panel HuCXCL2
T5 construct: also called HuCXCL2
T5 sequence (looked up): T1 sequence with S2P, V3L, P20L, N27K, R48Q, I58M, N68K, S69N, D70G
Method: as §1, §2

human CXCL1 protein [2] = molecular target: T1, human CXCL1 protein; experiment: antigen-immobilized ELISA, HuCXCL1 on the plate, absorbance (lower left panel)

B1: Hu5A-5E11 VH1/VL1 (antibody, V domains shown)
VH: QVQLVQSGAEVKKPGSSVKVSCKASGYAFSDYWMNWVRQAPGQGLEWIGQIYPGSGDTNYNAKFKGKGTITADKSTSTAYMELSSLRSEDTAVYYCARERDYDVAMDYWGQGTTVTVSS
VL: DIQMTQSPSSLSASVGDRVTITCKASQDINKYIAWFQQKPGKAPKLVIHYTSILQPGVPSRFSGSGSGTDYTFTISSLQPEDIATYYCLQYDNLPWTFGGGTKVEIK
notes: also called humanized Hu5A-5E11
What does the source list for B1?
IC50 (read off the curve) (human CXCL1 protein [1]): ~0.6 µg/mL; binding result (human CXCL5): binds; IC50 (read off the curve) (mouse CXCL1): ~0.6 µg/mL; IC50 (read off the curve) (human CXCL3): ~0.5 µg/mL; IC50 (read off the curve) (human CXCL2): ~0.8 µg/mL; EC50 (read off the curve) (human CXCL1 protein [2]): ~0.02 µg/mL
